Data taken from patent US20250127938A1, “THERAGNOSTIC FOLATE CONJUGATES” (Merck Patent GmbH, priority 2022, published 2025).

Key:
[1] = target: folate receptor-alpha (FR) (Homo sapiens, UniProt P15328); settings: background statement; cited from earlier work
[2] = target: T1, FR (folate receptor) on IGROV-1 cells (Homo sapiens, UniProt P15328); experiment: FR-binding affinity (KD) on FR-positive IGROV-1 cells; settings: 1 h at 4° C., average of 3 experiments
T1 construct: FR-positive IGROV-1 cells (human ovarian carcinoma cell line); endogenous in cells; host or cells: IGROV-1 human ovarian carcinoma cells (provided by Dr. Gerrit Janssen, Free University Medical Center Amsterdam)
T1 sequence (P15328 25-234): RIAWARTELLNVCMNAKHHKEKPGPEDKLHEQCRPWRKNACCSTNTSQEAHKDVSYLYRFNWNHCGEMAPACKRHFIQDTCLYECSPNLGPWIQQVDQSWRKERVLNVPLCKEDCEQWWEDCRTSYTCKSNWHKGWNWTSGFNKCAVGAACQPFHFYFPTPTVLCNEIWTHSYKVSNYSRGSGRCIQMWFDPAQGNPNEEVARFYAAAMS
Method: The determination of the KD values was performed as previously reported (Deberle, L. M. et al; Bioconj Chem 2021, 32, p. 1617). FR-positive IGROV-1 cells (human ovarian carcinoma cell line, kindly provided by Dr. […] Janssen, Free University Medical Center Amsterdam, The Netherlands) were seeded in 48-well plates (2.5×10^5 cells/well) in 500 μL FFRPMI medium with supplements. The cells were incubated at 37° C. and 5% CO2 to allow cell adhesion overnight. The experiment was performed on ice using ice-cold medium and buffer solutions. After removal of the supernatant, the cells were rinsed once with PBS prior to the addition of FFRPMI medium without supplements (450 μL/well). The respective folate radioconjugate of the disclosure (20 MBq/nmol) was added to each well at variable concentrations (in the range of 0.1 to 500 nM, 50 μL per well). […] The IGROV-1 tumor cells were incubated for 1 h at 4° C. on a shaker, followed by removal of the supernatants and rinsing the cells twice with PBS. After lysis of the cells with NaOH solution (1 M, aq., 500 μL), the samples were counted for activity in a γ-counter (Wallac Wizard 1480, Perkin Elmer). The counts per minute (cpm) of the specific binding (determined by subtracting the cpm of the unspecific binding from the cpm of total binding), were plotted against the molar concentration of the added folate radioconjugates of the disclosure. […]

[3] = system: T2, human albumin; experiment: in vitro; type: in vitro ADME; settings: plasma
T2 construct: tissue Stiftung Blutspende SRK Aargau-Solothurn, Switzerland; host or cells: human blood plasma
Method: (§1) Albumin-binding properties were determined in mouse and human blood plasma. The albumin-binding properties of the folate radioconjugates of the disclosure in mouse blood plasma (Rockland Immunochemicals, Inc., USA) and human blood plasma (Stiftung Blutspende SRK Aargau-Solothurn, Switzerland) were determined using an ultrafiltration method (Deberle, L. M. et al., Molecules 2020, 25, (11)). The amount of serum albumin in mouse (MSA) and human (HSA) blood plasma was defined as 550 μM and 800 μM, respectively, based on measurements using a dry chemistry analyzer (DRI-CHEM 4000i, FUJIFILM, Japan). The folate radioconjugates of the disclosure (50 MBq/nmol, ca. 300 kBq, 0.006 nmol in 15 μL) were added to samples of mouse and human blood plasma (150 μL), followed by incubation of the samples at 37° C. for 30 min. The samples were loaded on Amicon centrifugal filters (cut-off of 10 kDa; Merck Millipore) followed by centrifugation (14,000 rcf, 30 min, 4° C.) to allow the separation of the plasma-bound from the plasma-unbound (free) fractions of each sample. The inserts of the filter devices were inverted and centrifuged at 200 rcf for 3 min to recover the protein-bound fraction. The activity of the protein-bound fraction as well as the activity in the filtrate and in the filter unit were measured separately in a gamma-counter (Perkin Elmer, Wallac Wizard 1480). The percentage of radioconjugate bound to mouse and human albumin, respectively, was set in relation to the total activity measured (Table 4).

[4] = system: T3, mouse albumin; experiment: in vitro; type: in vitro ADME; settings: plasma
T3 construct: tissue Rockland Immunochemicals, Inc., USA; host or cells: mouse blood plasma
Method: as §1

[5] = Radiolytic stability of the radioconjugates (HPLC); type: physicochemical; settings: room temperature, PBS pH 7.4, 100 MBq/500 μL, relative to value at t0
Method: Radiolytic stability: After performing quality control of the radioconjugates (50 MBq/nmol) using HPLC (t0=0 h), the radioconjugates were diluted in PBS pH 7.4 to obtain an activity concentration of 100 MBq/500 μL. The radioconjugate dilutions were incubated at room temperature. The integrity of the radioconjugates was assessed after a 4 h and 24 h, respectively, using HPLC. The HPLC chromatograms were analyzed by determination of the peak area of the radiolabeled product, the released lutetium-177 as well as the degradation products of unknown structure. The quantity of the intact product was expressed as the percentage of the sum of integrated peak areas of the entire chromatogram and set into relation to the original value determined at to (radiochemical purity >95% set as 100%).

[6] = type: physicochemical; settings: pH 7.4
Method: The n-octanol/PBS distribution coefficients (log D values) were determined for each folate radioconjugate of the disclosure in order to assess their hydrophilic/hydrophobic properties. The log D values of the folate radioconjugates of the disclosure (50 MBq/nmol) were determined as previously reported, after dilution in PBS pH 7.4 to obtain an activity concentration of 10 MBq/500 μL. A sample of each radiofolate (ca. 0.5 MBq, 25 μL, 0.01 nmol) was added to a mixture of 1475 μL PBS pH 7.4 and 1500 μL n-octanol. The vials were vortexed vigorously for 1 min followed by centrifugation for 6 min at 2500 rpm for phase separation. An aliquot was taken from each phase and measured in a gamma-counter (Perkin Elmer, Wallac Wizard 1480). The distribution coefficients were calculated as the logarithm of the ratio of counts per minute (cpm) measured in the n-octanol phase relative to the cpm measured in the PBS phase. The results were listed as mean±SD of the data obtained from 3 independent experiments, each performed with five replicates.

Chain of folate receptor-alpha (FR) (P15328 25-234, species assumed): as the sequence (P15328 25-234) above

Structure (SMILES)	FR affinity (KD) [1]	Kd [2]	fraction unbound at 30 min, 0.036 µM [3]	fraction unbound at 30 min, 0.036 µM [4]	Intact radiolabeled product [%] ([5]; 4 h)	Intact radiolabeled product [%] ([5]; 24 h)	logD [6]
CN1c2c(nc(N)[nH]c2=O)NCC1CNc1ccc(C(=O)N[C@@H](CCC(=O)O)C(=O)O)cc1 (stereo partly shown) [5-methyltetrahydrofolic acid]	nanomolar range						
CN1c2c(nc(N)[nH]c2=O)NC[C@H]1CNc1ccc(C(=O)N[C@@H](CCC(=O)N[C@@H](CCCCNC(=O)CN2CCN(CC(=O)O)CCN(CC(=O)O)CCN(CC(=O)O)CC2)C(=O)N[C@@H](CCCCNC(=O)CCCCc2ccc(I)cc2)C(=O)O)C(=O)O)cc1 [[^177Lu]Lu-6R-RedFol-24, metal not drawn]		5.6 nM	0.06	0.27	≥99%	≥99%	-3.5 ± 0.2
CN1c2c(nc(N)[nH]c2=O)NC[C@@H]1CNc1ccc(C(=O)N[C@@H](CCC(=O)N[C@@H](CCCCNC(=O)CN2CCN(CC(=O)O)CCN(CC(=O)O)CCN(CC(=O)O)CC2)C(=O)N[C@@H](CCCCNC(=O)CCCCc2ccc(I)cc2)C(=O)O)C(=O)O)cc1 [[^177Lu]Lu-6S-RedFol-24, metal not drawn]		4.6 nM	0.14	0.26	≥99%	≥99%	-3.1 ± 0.1
